{"source": "paper PMC9730764", "key": {"[1]": {"target": "Staphylococcus aureus cysteine desulfurase SufS (S. aureus USA300_LAC)"}, "[2]": {"target": "Bacillus subtilis cysteine desulfurase SufS (B. subtilis) (UniProt O32164)"}}}
{"substance": "Staphylococcus aureus sulfurtransferase SufU (from UniProt A0ABV4SS75 2-153) (natural protein)", "values": [{"measurement": "stimulation factor of SufS cysteine desulfurase activity by SufU", "setting": "[1]", "result": 1.5}, {"measurement": "stimulation factor of SufS cysteine desulfurase activity by SufU", "setting": "[2]", "result": 15}]}
